Experimental data from publication PMC5705597, “Molecular architecture of potassium chloride co-transporter KCC2” (Scientific Reports, 2017).
One block for each molecule: values may come before it.

Columns and labels:
[1] = target: Flag-Avi-His-KCC2 (human potassium chloride co-transporter KCC2, N-terminally tagged) (human) (UniProt Q9H2X9); assay: cross-linking; purified KCC2 (5 µg) with glutaraldehyde 0-0.1% for 30 min at 4 °C, with or without DTT; SDS-PAGE and Western blot
[2] = target: Flag-Avi-His-KCC2 (human potassium chloride co-transporter KCC2, N-terminally tagged) (human) (UniProt Q9H2X9); assay: SEC; 50 µl purified KCC2 at 1 mg/ml on Superdex 200 Increase 5/150 GL, PBS, CALX-R3 1.5 mM, DDM 0.6 mM; fractions analysed by Clear Native PAGE and Western blot
[3] = target: Flag-Avi-His-KCC2 (human potassium chloride co-transporter KCC2, N-terminally tagged) (human) (UniProt Q9H2X9); assay: negative stain electron microscopy; gel filtration fractions of KCC2 monomers and dimers, 40 µg/ml in PBS, CALX-R3 1.5 mM, DDM 0.6 mM; 2% uranyl acetate; 2-D classes and 3-D models
[4] = target: Flag-Avi-His-KCC2 (human potassium chloride co-transporter KCC2, N-terminally tagged) (human) (UniProt Q9H2X9); assay: native gel or EMSA; purified KCC2 in CALX-R3/DDM on 4-15% Clear Native PAGE (cathode buffer 7.5 mM imidazole, 0.05% deoxycholate, 0.01% DDM), 4 °C, Western blot with KCC2 antibody; with or without a freeze-thaw cycle
[5] = target: T1, KCC2 (Homo sapiens, UniProt Q9H2X9); assay: SPR (Biacore S200), steady-state Langmuir fit on immobilized purified KCC2; assay type: binding
T1 construct: gene SLC12A5; N-terminal tagged Flag-Avi-His-KCC2, residues 1–1116 of NP_065759 (human KCC2 isoform 2), purified full length
T1 sequence (Q9H2X9 1-1116 isoform Q9H2X9-2): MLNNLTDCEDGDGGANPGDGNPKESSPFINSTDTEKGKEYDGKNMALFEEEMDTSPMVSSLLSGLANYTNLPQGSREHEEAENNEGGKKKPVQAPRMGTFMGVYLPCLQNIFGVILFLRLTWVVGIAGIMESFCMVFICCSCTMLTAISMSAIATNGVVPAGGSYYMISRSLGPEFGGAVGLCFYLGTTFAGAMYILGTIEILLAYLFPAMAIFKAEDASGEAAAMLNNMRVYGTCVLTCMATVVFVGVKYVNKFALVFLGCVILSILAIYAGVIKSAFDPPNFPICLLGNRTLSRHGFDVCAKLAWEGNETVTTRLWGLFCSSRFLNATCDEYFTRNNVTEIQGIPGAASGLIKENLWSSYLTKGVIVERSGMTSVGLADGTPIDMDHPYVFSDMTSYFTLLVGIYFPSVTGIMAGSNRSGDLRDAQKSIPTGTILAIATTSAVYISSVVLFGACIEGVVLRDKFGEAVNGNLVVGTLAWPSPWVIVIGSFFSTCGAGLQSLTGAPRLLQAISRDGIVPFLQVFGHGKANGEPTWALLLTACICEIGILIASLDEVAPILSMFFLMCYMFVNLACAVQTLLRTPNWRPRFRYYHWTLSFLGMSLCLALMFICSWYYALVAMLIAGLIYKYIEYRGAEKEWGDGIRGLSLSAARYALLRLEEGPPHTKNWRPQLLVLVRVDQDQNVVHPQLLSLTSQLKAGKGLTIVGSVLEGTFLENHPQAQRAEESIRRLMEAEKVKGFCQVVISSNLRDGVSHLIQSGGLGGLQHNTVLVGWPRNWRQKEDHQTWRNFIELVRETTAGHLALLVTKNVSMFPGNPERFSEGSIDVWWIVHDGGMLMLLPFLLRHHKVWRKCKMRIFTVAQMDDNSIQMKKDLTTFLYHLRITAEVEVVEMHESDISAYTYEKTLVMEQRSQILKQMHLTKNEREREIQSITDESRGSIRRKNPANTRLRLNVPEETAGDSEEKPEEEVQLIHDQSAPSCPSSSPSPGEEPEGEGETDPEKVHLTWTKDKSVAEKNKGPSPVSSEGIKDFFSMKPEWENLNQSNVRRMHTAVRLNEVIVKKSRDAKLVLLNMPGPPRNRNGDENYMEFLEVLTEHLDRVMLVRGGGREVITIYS
Source text: SPR (Biacore S200), steady-state Langmuir fit on immobilized purified KCC2 on KCC2 | Concentration-dependent binding of VU0463271 (blue diamonds) and non-specific control compound (red circles) on immobilized purified KCC2.

[6] = target: T2, recombinant mouse KCC2 (mouse), Q91V14; assay: native gel or EMSA; purified KCC2 in CALX-R3/DDM on 4-15% Clear Native PAGE (cathode buffer 7.5 mM imidazole, 0.05% deoxycholate, 0.01% DDM), 4 °C, Western blot with KCC2 antibody; with or without a freeze-thaw cycle; settings: remark: other sources report otherwise
T2 chain: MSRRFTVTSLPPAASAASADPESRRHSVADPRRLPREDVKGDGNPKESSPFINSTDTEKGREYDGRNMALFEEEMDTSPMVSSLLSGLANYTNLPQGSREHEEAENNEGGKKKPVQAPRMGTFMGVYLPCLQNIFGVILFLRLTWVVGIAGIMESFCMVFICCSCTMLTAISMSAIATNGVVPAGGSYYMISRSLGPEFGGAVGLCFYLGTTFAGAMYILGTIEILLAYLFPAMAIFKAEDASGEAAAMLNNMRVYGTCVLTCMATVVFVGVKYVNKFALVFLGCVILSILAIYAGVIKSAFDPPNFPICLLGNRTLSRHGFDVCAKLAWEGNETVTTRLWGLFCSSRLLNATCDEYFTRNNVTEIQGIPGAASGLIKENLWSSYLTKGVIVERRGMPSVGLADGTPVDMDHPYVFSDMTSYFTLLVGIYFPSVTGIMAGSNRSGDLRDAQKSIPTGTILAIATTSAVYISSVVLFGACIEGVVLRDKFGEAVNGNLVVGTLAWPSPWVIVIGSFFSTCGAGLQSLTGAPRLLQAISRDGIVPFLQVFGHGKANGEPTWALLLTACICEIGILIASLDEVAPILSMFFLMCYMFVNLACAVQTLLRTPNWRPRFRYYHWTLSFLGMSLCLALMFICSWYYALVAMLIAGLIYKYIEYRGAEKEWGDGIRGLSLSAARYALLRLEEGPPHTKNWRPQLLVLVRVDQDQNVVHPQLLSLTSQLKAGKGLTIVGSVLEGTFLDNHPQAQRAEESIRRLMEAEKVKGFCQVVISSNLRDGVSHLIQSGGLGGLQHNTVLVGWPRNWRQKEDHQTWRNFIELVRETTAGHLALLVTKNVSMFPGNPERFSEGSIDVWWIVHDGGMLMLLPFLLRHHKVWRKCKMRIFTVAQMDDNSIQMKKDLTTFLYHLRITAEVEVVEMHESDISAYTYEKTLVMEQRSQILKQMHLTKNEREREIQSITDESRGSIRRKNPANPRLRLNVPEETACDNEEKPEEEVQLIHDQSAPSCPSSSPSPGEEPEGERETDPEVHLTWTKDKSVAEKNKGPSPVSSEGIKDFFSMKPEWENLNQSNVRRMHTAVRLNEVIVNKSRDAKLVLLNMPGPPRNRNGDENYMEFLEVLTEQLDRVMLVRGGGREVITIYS

stoichiometry N [1]: 2
stoichiometry N [2]: 2
stoichiometry N [3]: 2
stoichiometry N [4]: 2
Molecule: Flag-Avi-His-KCC2 (human potassium chloride co-transporter KCC2, N-terminally tagged) (from UniProt Q9H2X9-2 1-1116) (natural protein)

Kd [5]: 3 ± 2 µM
Molecule: Cc1csc(N(C(=O)CSc2ccc(-c3ccccc3)nn2)C2CC2)n1 [VU0463271]

stoichiometry N [6]: 2
B1: recombinant mouse KCC2, Q91V14 1-1138 (natural protein)
chain: MSRRFTVTSLPPAASAASADPESRRHSVADPRRLPREDVKGDGNPKESSPFINSTDTEKGREYDGRNMALFEEEMDTSPMVSSLLSGLANYTNLPQGSREHEEAENNEGGKKKPVQAPRMGTFMGVYLPCLQNIFGVILFLRLTWVVGIAGIMESFCMVFICCSCTMLTAISMSAIATNGVVPAGGSYYMISRSLGPEFGGAVGLCFYLGTTFAGAMYILGTIEILLAYLFPAMAIFKAEDASGEAAAMLNNMRVYGTCVLTCMATVVFVGVKYVNKFALVFLGCVILSILAIYAGVIKSAFDPPNFPICLLGNRTLSRHGFDVCAKLAWEGNETVTTRLWGLFCSSRLLNATCDEYFTRNNVTEIQGIPGAASGLIKENLWSSYLTKGVIVERRGMPSVGLADGTPVDMDHPYVFSDMTSYFTLLVGIYFPSVTGIMAGSNRSGDLRDAQKSIPTGTILAIATTSAVYISSVVLFGACIEGVVLRDKFGEAVNGNLVVGTLAWPSPWVIVIGSFFSTCGAGLQSLTGAPRLLQAISRDGIVPFLQVFGHGKANGEPTWALLLTACICEIGILIASLDEVAPILSMFFLMCYMFVNLACAVQTLLRTPNWRPRFRYYHWTLSFLGMSLCLALMFICSWYYALVAMLIAGLIYKYIEYRGAEKEWGDGIRGLSLSAARYALLRLEEGPPHTKNWRPQLLVLVRVDQDQNVVHPQLLSLTSQLKAGKGLTIVGSVLEGTFLDNHPQAQRAEESIRRLMEAEKVKGFCQVVISSNLRDGVSHLIQSGGLGGLQHNTVLVGWPRNWRQKEDHQTWRNFIELVRETTAGHLALLVTKNVSMFPGNPERFSEGSIDVWWIVHDGGMLMLLPFLLRHHKVWRKCKMRIFTVAQMDDNSIQMKKDLTTFLYHLRITAEVEVVEMHESDISAYTYEKTLVMEQRSQILKQMHLTKNEREREIQSITDESRGSIRRKNPANPRLRLNVPEETACDNEEKPEEEVQLIHDQSAPSCPSSSPSPGEEPEGERETDPEVHLTWTKDKSVAEKNKGPSPVSSEGIKDFFSMKPEWENLNQSNVRRMHTAVRLNEVIVNKSRDAKLVLLNMPGPPRNRNGDENYMEFLEVLTEQLDRVMLVRGGGREVITIYS
